In this experiment the target is microtubules of Xenopus S3 cells stably expressing EGFP-α-tubulin (Xenopus laevis (endogenous in S3 cells); cDNA of the EGFP-tagged copy not stated | Xenopus laevis (endogenous in S3 cells)). As to the kind of experiment: fluorescence molecule counting on microtubules in cells.

B1: mCherryFP-TgDCX (full-length wild-type TgDCX, mCherryFP at the N-terminus) (natural protein)
chain: MACGIPWKLARRDELMATRQAERPGEYFPPPYPPCPPTVVTPLRTSAYDFPEATFVTRPCLPAKKATGHKNVFERLTDTAYYTGSHRERFDEFGNGRGIAGREYLYAYDGLTESPSRCHEVYSSVIKRPRKPVVTPGTLGIQRFGVQIPAPRLMWLYRNGDKHDDGTPFFVRPYIKSMESLYQQITKEITPIAGPVRRIFDQNFRVITDLDDIVDGAKYLCTSGEPPAAYDRLEKFLSEWVIQKSQTKVPSQFFVV
As for B1, the DCX molecules per micron (short, smoothly curved microtubule arcs) (molecules per micron) was 4850; the TgDCX molecules per micron of fiber length ("flexible" microtubules) (molecules per micron) is 1460; the stoichiometry N (TgDCX molecules per tubulin dimer) was determined as 0.9.

The values above are taken from PMC7048138.
